Source: US10782287B2, “Enzyme coupled assay for quantification of protein and peptide binding by SAMDI mass spectrometry” (NORTHWESTERN UNIVERSITY, priority 2015, dated 2020)
Ends that are not written are not given here.

Biological target: T1, Cbx1 fusion protein (Cbx1 chromodomain-KDAC8) (Homo sapiens, UniProt P83916)
T1 construct: constructing E. coli-based vectors containing chromodomains and KDAC8 separated by a short linker; made in house; host or cells: E. coli
Test: Enzyme-coupled SAMDI mass spectrometry assay: deacetylation of an immobilized KDAC8 substrate reports chromodomain binding to a co-immobilized ligand
Format: biochemical
Settings: monolayer presenting substrate GMK^AcFGC and the ligand; when the chromodomain binds its ligand on the monolayer
Source text: In this example, two peptides—a methylated peptide that binds the chromodomain and an acetylated peptide that is a substrate for the deacetylase—are immobilized to a monolayer presenting maleimide groups against a background of tri(ethylene glycol) groups. The density of the maleimide group is controlled precisely (Houseman et al., Langmuir 19: 1522-1531 (2003)) and the relative densities of the two peptides are controlled either by immobilizing them as a mixture at defined concentrations or by immobilizing the first for a time that gives incomplete immobilization followed by addition of the second peptide. Fusion proteins are prepared by first constructing E. coli-based vectors containing chromodomains and KDAC8 separated by a short linker. The vector is designed to contain a restriction site allowing for the insertion of any chromodomain of interest containing the complementary restriction sites. In this way, the same plasmid containing KDAC8 may be used to rapidly create several chromodomain fusions. Monolayers are treated with the chromodomain-KDAC8 fusion protein for different times, the reactions are stopped by rinsing and the spots are analyzed by SAMDI mass spectrometry to identify an initial velocity for the reaction, υo, which is the measurable parameter that is used to assess the protein-ligand interaction. […]

T1 sequence (P83916 21-79 limits assumed): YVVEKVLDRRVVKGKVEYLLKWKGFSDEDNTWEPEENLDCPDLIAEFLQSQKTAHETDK

QTARK^MeSTGC: methylated H3K9-based peptide ligand for the Cbx1 chromodomain, immobilized on the monolayer via cysteine (QTARK(Me)STGC; also: immobilized on the monolayer via cysteine)
rate acceleration for the deacetylation reaction: approximately 20 fold
